# Laboratory results as given in IntAct's records for PubMed 24366543.
# B1: Nuclear factor erythroid 2-related factor 2 (Mus musculus), Q60795 (parent)
# chain: MMDLELPPPGLQSQQDMDLIDILWRQDIDLGVSREVFDFSQRQKDYELEKQKKLEKERQEQLQKEQEKAFFAQFQLDEETGEFLPIQPAQHIQTDTSGSASYSQVAHIPKQDALYFEDCMQLLAETFPFVDDHESLALDIPSHAESSVFTAPHQAQSLNSSLEAAMTDLSSIEQDMEQVWQELFSIPELQCLNTENKQLADTTAVPSPEATLTEMDSNYHFYSSISSLEKEVGNCGPHFLHGFEDSFSSILSTDDASQLTSLDSNPTLNTDFGDEFYSAFIAEPSDGGSMPSSAAISQSLSELLDGTIEGCDLSLCKAFNPKHAEGTMEFNDSDSGISLNTSPSRASPEHSVESSIYGDPPPGFSDSEMEELDSAPGSVKQNGPKAQPAHSPGDTVQPLSPAQGHSAPMRESQCENTTKKEVPVSPGHQKAPFTKDKHSSRLEAHLTRDELRAKALHIPFPVEKIINLPVDDFNEMMSKEQFNEAQLALIRDIRRRGKNKVAAQNCRKRKLENIVELEQDLGHLKDEREKLLREKGENDRNLHLLKRRLSTLYLEVFSMLRDEDGKPYSPSEYSLQQTRDGNVFLVPKSKKPDTKKN
# Variants of: B1
# Conditions: with keap1_mouse Keap1, Q9Z2X8
# Sequence of keap1_mouse Keap1, Q9Z2X8 (Q9Z2X8 whole entry): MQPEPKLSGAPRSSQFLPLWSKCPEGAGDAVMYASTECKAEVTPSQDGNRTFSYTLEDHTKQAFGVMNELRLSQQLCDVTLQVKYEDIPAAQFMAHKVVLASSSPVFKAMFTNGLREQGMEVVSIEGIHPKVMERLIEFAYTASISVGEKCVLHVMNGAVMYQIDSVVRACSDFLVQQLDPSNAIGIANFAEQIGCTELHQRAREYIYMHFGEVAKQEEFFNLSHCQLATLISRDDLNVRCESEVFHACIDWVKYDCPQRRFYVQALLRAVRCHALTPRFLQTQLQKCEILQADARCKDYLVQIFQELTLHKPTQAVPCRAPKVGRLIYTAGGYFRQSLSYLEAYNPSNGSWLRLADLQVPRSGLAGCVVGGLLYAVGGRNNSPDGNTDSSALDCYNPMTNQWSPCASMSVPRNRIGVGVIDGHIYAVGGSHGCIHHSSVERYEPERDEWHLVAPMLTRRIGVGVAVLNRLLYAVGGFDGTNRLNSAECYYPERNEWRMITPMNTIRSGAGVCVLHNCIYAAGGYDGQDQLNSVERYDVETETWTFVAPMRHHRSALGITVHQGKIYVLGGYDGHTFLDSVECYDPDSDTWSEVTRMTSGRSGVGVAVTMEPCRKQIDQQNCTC
row,effect of a mutation on the interaction,Variant
1,increasing interaction,MMDLELPPPGLQSQQDMDLIDILWRQDIDLGVRREVFDFSQRQKDYELEKQKKLEKERQEQLQKEQEKAFFAQFQLDEETGEFLPIQPAQHIQTDTSGSASYSQVAHIPKQDALYFEDCMQLLAETFPFVDDHESLALDIPSHAESSVFTAPHQAQSLNSSLEAAMTDLSSIEQDMEQVWQELFSIPELQCLNTENKQLADTTAVPSPEATLTEMDSNYHFYSSISSLEKEVGNCGPHFLHGFEDSFSSILSTDDASQLTSLDSNPTLNTDFGDEFYSAFIAEPSDGGSMPSSAAISQSLSELLDGTIEGCDLSLCKAFNPKHAEGTMEFNDSDSGISLNTSPSRASPEHSVESSIYGDPPPGFSDSEMEELDSAPGSVKQNGPKAQPAHSPGDTVQPLSPAQGHSAPMRESQCENTTKKEVPVSPGHQKAPFTKDKHSSRLEAHLTRDELRAKALHIPFPVEKIINLPVDDFNEMMSKEQFNEAQLALIRDIRRRGKNKVAAQNCRKRKLENIVELEQDLGHLKDEREKLLREKGENDRNLHLLKRRLSTLYLEVFSMLRDEDGKPYSPSEYSLQQTRDGNVFLVPKSKKPDTKKN [S33R]

# Variants of: B1
# Conditions: with keap1_mouse Keap1, Q9Z2X8
# Remark: another data set of the same source
row,effect of a mutation on the interaction,Variant
1,disrupting interaction,MMDLELPPPGLQSQQDMDLIDILWRQDIDLGVSQEVFDFSQRQKDYELEKQKKLEKERQEQLQKEQEKAFFAQFQLDEETGEFLPIQPAQHIQTDTSGSASYSQVAHIPKQDALYFEDCMQLLAETFPFVDDHESLALDIPSHAESSVFTAPHQAQSLNSSLEAAMTDLSSIEQDMEQVWQELFSIPELQCLNTENKQLADTTAVPSPEATLTEMDSNYHFYSSISSLEKEVGNCGPHFLHGFEDSFSSILSTDDASQLTSLDSNPTLNTDFGDEFYSAFIAEPSDGGSMPSSAAISQSLSELLDGTIEGCDLSLCKAFNPKHAEGTMEFNDSDSGISLNTSPSRASPEHSVESSIYGDPPPGFSDSEMEELDSAPGSVKQNGPKAQPAHSPGDTVQPLSPAQGHSAPMRESQCENTTKKEVPVSPGHQKAPFTKDKHSSRLEAHLTRDELRAKALHIPFPVEKIINLPVDDFNEMMSKEQFNEAQLALIRDIRRRGKNKVAAQNCRKRKLENIVELEQDLGHLKDEREKLLREKGENDRNLHLLKRRLSTLYLEVFSMLRDEDGKPYSPSEYSLQQTRDGNVFLVPKSKKPDTKKN [R34Q]

# Variants of: B1
# Conditions: with keap1_mouse Keap1, Q9Z2X8
# Remark: another data set of the same source
row,effect of a mutation on the interaction,Variant
1,increasing interaction,MMDLELPPPGLQSQQDMDLIDILWRQDIDLGVSREVFDFSQRRKDYELEKQKKLEKERQEQLQKEQEKAFFAQFQLDEETGEFLPIQPAQHIQTDTSGSASYSQVAHIPKQDALYFEDCMQLLAETFPFVDDHESLALDIPSHAESSVFTAPHQAQSLNSSLEAAMTDLSSIEQDMEQVWQELFSIPELQCLNTENKQLADTTAVPSPEATLTEMDSNYHFYSSISSLEKEVGNCGPHFLHGFEDSFSSILSTDDASQLTSLDSNPTLNTDFGDEFYSAFIAEPSDGGSMPSSAAISQSLSELLDGTIEGCDLSLCKAFNPKHAEGTMEFNDSDSGISLNTSPSRASPEHSVESSIYGDPPPGFSDSEMEELDSAPGSVKQNGPKAQPAHSPGDTVQPLSPAQGHSAPMRESQCENTTKKEVPVSPGHQKAPFTKDKHSSRLEAHLTRDELRAKALHIPFPVEKIINLPVDDFNEMMSKEQFNEAQLALIRDIRRRGKNKVAAQNCRKRKLENIVELEQDLGHLKDEREKLLREKGENDRNLHLLKRRLSTLYLEVFSMLRDEDGKPYSPSEYSLQQTRDGNVFLVPKSKKPDTKKN [Q43R]

# Variants of: B1
# Conditions: with keap1_mouse Keap1, Q9Z2X8
# Remark: another data set of the same source
row,effect of a mutation on the interaction,Variant
1,disrupting interaction,MMDLELPPPGLQSQQDMDLIDIRWRQDIDLGVSREVFDFSQRQKDYELEKQKKLEKERQEQLQKEQEKAFFAQFQLDEETGEFLPIQPAQHIQTDTSGSASYSQVAHIPKQDALYFEDCMQLLAETFPFVDDHESLALDIPSHAESSVFTAPHQAQSLNSSLEAAMTDLSSIEQDMEQVWQELFSIPELQCLNTENKQLADTTAVPSPEATLTEMDSNYHFYSSISSLEKEVGNCGPHFLHGFEDSFSSILSTDDASQLTSLDSNPTLNTDFGDEFYSAFIAEPSDGGSMPSSAAISQSLSELLDGTIEGCDLSLCKAFNPKHAEGTMEFNDSDSGISLNTSPSRASPEHSVESSIYGDPPPGFSDSEMEELDSAPGSVKQNGPKAQPAHSPGDTVQPLSPAQGHSAPMRESQCENTTKKEVPVSPGHQKAPFTKDKHSSRLEAHLTRDELRAKALHIPFPVEKIINLPVDDFNEMMSKEQFNEAQLALIRDIRRRGKNKVAAQNCRKRKLENIVELEQDLGHLKDEREKLLREKGENDRNLHLLKRRLSTLYLEVFSMLRDEDGKPYSPSEYSLQQTRDGNVFLVPKSKKPDTKKN [L23R]
